{"source": "patent US20190062438A1", "about": "(CSL, published 2019)", "data": [{"target": "T1, soluble Homo sapiens CD131 comprising a C-terminal 6xHis tag (human, UniProt P32927 17-438)", "T1 construct": "truncated after Ser438, C-terminal 6xHis; also called shCD131; shβc", "T1 sequence": "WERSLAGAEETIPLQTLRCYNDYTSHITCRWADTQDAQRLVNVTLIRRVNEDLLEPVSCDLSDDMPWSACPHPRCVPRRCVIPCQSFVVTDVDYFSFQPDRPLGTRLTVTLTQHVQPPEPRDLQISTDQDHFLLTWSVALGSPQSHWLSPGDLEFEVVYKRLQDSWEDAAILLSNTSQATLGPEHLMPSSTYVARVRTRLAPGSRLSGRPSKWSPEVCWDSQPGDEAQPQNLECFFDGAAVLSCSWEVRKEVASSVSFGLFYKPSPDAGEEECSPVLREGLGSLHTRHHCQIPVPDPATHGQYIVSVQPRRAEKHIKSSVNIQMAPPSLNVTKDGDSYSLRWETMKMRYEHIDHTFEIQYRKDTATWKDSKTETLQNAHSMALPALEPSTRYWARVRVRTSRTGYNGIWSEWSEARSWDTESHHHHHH", "experiment": "SPR, Fab over captured shCD131", "description": "Binding kinetics were measured using SPR with a BIAcore™ A-100 instrument (GE Healthcare Life Sciences). An anti-C-terminal Hexa-His antibody (3H3) was immobilized on spots 1, 2, 4 and 5 of each flow cell of a CM-5 sensor chip (GE Healthcare Life Sciences) using amine-coupling chemistry (116). […] As shβc is a dimer, kinetics assays were performed with shβc captured on the sensor surface, and purified Fab injected as the analyte. Avidity effects were avoided by the use of Fab rather than whole IgG.\nshCD131 was captured on spots 1 and 5 of each flow cell for 2 minutes at a concentration of 0.4 μg/ml. […] For some analysis purified Fab was injected over each flow cell for 3 minutes and dissociation was monitored for a further 10 minutes. Regeneration of the surface was performed after each cycle with a 40 second injection of 25 mM glycine, pH 2.0. The analysis was performed with Fabs at several concentrations between 100 and 0.31 nM, with each concentration analyzed twice and in random order. The analysis was performed at a flow rate of 30 μl/min in HBS-EP buffer (10 mM Hepes, 150 mM NaCl, 3 mM EDTA, 0.005% Tween 20, pH 7.4) at 37° C. Responses from spots 2 and 4 of each flow cell, (in which shβc was not captured, but otherwise treated identically), were subtracted from those of spots 1 and 5 respectively to produce reference subtracted data. Reference subtracted responses from a blank injection comprising buffer alone were subtracted from the resultant sensorgrams to produce double referenced data suitable for kinetic analysis. Double-referenced sensorgrams were fitted using non-linear regression to a model describing 1:1 kinetics, including a term for mass transport limitation. The Rₘₐₓ value was fitted locally to account for slight deviations in the level of sCD131 captured, with association rate (kₐ), dissociation rate (kd) and equilibrium dissociation constant (KD) fitted globally.", "units": {"Kd": "pM", "koff": "s⁻¹", "kon": "M⁻¹ s⁻¹"}, "values": [{"binder": "9A2-VR24.10 Fab (Fab, V domains shown, recombinant Fab) VH: EVQLLESGGGLVQPGGSLRLSCAASGFTFPWYRVHWVRQAPGKGLEWVSSIHTGSQWTYYADSVKGRFTISRDNSKNTLYLQMNSLRAEDTAVYYCARFYDSFFDIWGQGTMVTVSS VL: DIQMTQSPSSVSASVGDRVTITCRASQGISSWLAWYQQKPGKAPKLLIYAASSLQSGVPSRFSGSGSGTDFTLTISSLQPEDFATYYCQQANSFPITFGQGTRLEIKR", "Kd": 372, "koff": 0.00055, "kon": "1.48e+06"}, {"binder": "9A2-VR24.30 Fab (Fab, V domains shown, recombinant Fab) VH: EVQLLESGGGLVQPGGSLRLSCAASGFTFPWYRVHWVRQAPGKGLEWVSSIRSSGGFPYYNRRVKGRFTISRDNSKNTLYLQMNSLRAEDTAVYYCARFYDSFFDIWGQGTMVTVSS VL: DIQMTQSPSSVSASVGDRVTITCRASQGISSWLAWYQQKPGKAPKLLIYAASSLQSGVPSRFSGSGSGTDFTLTISSLQPEDFATYYCQQANSFPITFGQGTRLEIKR", "Kd": 122, "koff": 0.000464, "kon": "3.8e+06"}, {"binder": "9A2-VR24.27 Fab (Fab, V domains shown, recombinant Fab) VH: EVQLLESGGGLVQPGGSLRLSCAASGFTFPWYRVHWVRQAPGKGLEWVSSIRSSGGFPYYHQKVKGRFTISRDNSKNTLYLQMNSLRAEDTAVYYCARFYDSFFDIWGQGTMVTVSS VL: DIQMTQSPSSVSASVGDRVTITCRASQGISSWLAWYQQKPGKAPKLLIYAASSLQSGVPSRFSGSGSGTDFTLTISSLQPEDFATYYCQQANSFPITFGQGTRLEIKR", "Kd": 170, "koff": 0.000527, "kon": "3.1e+06"}, {"binder": "9A2-VR24.55 Fab (Fab, V domains shown, recombinant Fab) VH: EVQLLESGGGLVQPGGSLRLSCAASGFTFPWYRVHWVRQAPGKGLEWVSSIRSSGGFTYYNPSVKNRFTISRDNSKNTLYLQMNSLRAEDTAVYYCARFYDSFFDIWGQGTMVTVSS VL: DIQMTQSPSSVSASVGDRVTITCRASQGISSWLAWYQQKPGKAPKLLIYAASSLQSGVPSRFSGSGSGTDFTLTISSLQPEDFATYYCQQANSFPITFGQGTRLEIKR", "Kd": 369, "koff": 0.000942, "kon": "2.55e+06"}, {"binder": "9A2-VR24.33 Fab (Fab, V domains shown, recombinant Fab) VH: EVQLLESGGGLVQPGGSLRLSCAASGFTFPWYRVHWVRQAPGKGLEWVSSIRSSGGFPYYNHKVKGRFTISRDNSKNTLYLQMNSLRAEDTAVYYCARFYDSFFDIWGQGTMVTVSS VL: DIQMTQSPSSVSASVGDRVTITCRASQGISSWLAWYQQKPGKAPKLLIYAASSLQSGVPSRFSGSGSGTDFTLTISSLQPEDFATYYCQQANSFPITFGQGTRLEIKR", "Kd": 150, "koff": 0.000472, "kon": "3.16e+06"}, {"binder": "9A2-VR24.57 Fab (Fab, V domains shown, recombinant Fab) VH: EVQLLESGGGLVQPGGSLRLSCAASGFTFPWYRVHWVRQAPGKGLEWVSSIRSSGGFTYYNPKVKHRFTISRDNSKNTLYLQMNSLRAEDTAVYYCARFYDSFFDIWGQGTMVTVSS VL: DIQMTQSPSSVSASVGDRVTITCRASQGISSWLAWYQQKPGKAPKLLIYAASSLQSGVPSRFSGSGSGTDFTLTISSLQPEDFATYYCQQANSFPITFGQGTRLEIKR", "Kd": 211, "koff": 0.000841, "kon": "4e+06"}, {"binder": "9A2-VR24.44 Fab (Fab, V domains shown, recombinant Fab) VH: EVQLLESGGGLVQPGGSLRLSCAASGFTFPWYRVHWVRQAPGKGLEWVSSIRSSGGFPYYHPSVKGRFTISRDNSKNTLYLQMNSLRAEDTAVYYCARFYDSFFDIWGQGTMVTVSS VL: DIQMTQSPSSVSASVGDRVTITCRASQGISSWLAWYQQKPGKAPKLLIYAASSLQSGVPSRFSGSGSGTDFTLTISSLQPEDFATYYCQQANSFPITFGQGTRLEIKR", "Kd": 163, "koff": 0.000488, "kon": "3e+06"}, {"binder": "9A2-VR24.56 Fab (Fab, V domains shown, recombinant Fab) VH: EVQLLESGGGLVQPGGSLRLSCAASGFTFPWYRVHWVRQAPGKGLEWVSSIRSSGGFTYYNPAVRGRFTISRDNSKNTLYLQMNSLRAEDTAVYYCARFYDSFFDIWGQGTMVTVSS VL: DIQMTQSPSSVSASVGDRVTITCRASQGISSWLAWYQQKPGKAPKLLIYAASSLQSGVPSRFSGSGSGTDFTLTISSLQPEDFATYYCQQANSFPITFGQGTRLEIKR", "Kd": 353, "koff": 0.000997, "kon": "2.82e+06"}]}]}
